The test deals with T1, MtSteBΔTM (M. tuberculosis SteB devoid of its TM domain, residues 38-314) (Mycobacterium tuberculosis, UniProt P9WJ83 38-314).
T1 construct: Homodimer in both crystal structures; also called Rv1698; MctB; not shown: 6xHis-SUMO, N-terminal, cleaved
Nature of the test: BLI; biotinylated MtRipACC immobilised on streptavidin biosensors; 25°C; 25 mM HEPES pH 7.5, 150 mM NaCl, 5% glycerol, BSA 1 mg/mL, 0.05% Tween 20; steady-state signal versus concentration, one-site binding model; apparent Kd. To be noted: both partners purified. For orientation: Biolayer interferometry detects binding as a change in optical thickness at a sensor tip.

B1: MtRipACC (coiled-coil domain of M. tuberculosis RipA, residues 40-240) (domain or fragment)
chain: DPQTDTIAALIADVAKANQRLQDLSDEVQAEQESVNKAMVDVETARDNAAAAEDDLEVSQRAVKDANAAIAAAQHRFDTFAAATYMNGPSVSYLSASSPDEIIATVTAAKTLSASSQAVMANLQRARTERVNTESAARLAKQKADKAAADAKASQDAAVAALTETRRKFDEQREEVQRLAAERDAAQARLQAARLVAWSSE
modifications: biotinylated with EZ-Link NHS-PEG4-Biotin (20 molar excess) for the BLI assays
notes: also called RipA coiled-coil (CC) domain; MtRipA CC domain; not shown: 6xHis-SUMO, N-terminal, cleaved
Regarding B1, the Kd turned out to be 42.6 ± 4.4 µM.

Values taken from doi:10.1101/2025.06.28.662095, “Mechanistic insights into the allosteric regulation of cell wall hydrolase RipA in Mycobacterium tuberculosis” (bioRxiv, 2025).
